For series [1], the target named is T1, DNMT3a-CD (mouse, UniProt O88508 608-908). The series is described as follows: EMSA; binding not altered; 20 mM HEPES, 40 mM KCl, 1 mM EDTA, 0.2 mM DTT, 0.1 mg/ml BSA, 0.1% Tween-20, 20% glycerol; pH not stated; 1 h at 37 C; 1 nM probe; native 4-20% PAGE. As to conditions: protein: recombinant; label: 5'-Cy5.5; unstructured (predicted).
Series [2] has as its target T1, DNMT3a-CD. Nature of the series: EMSA; binding not impaired; 20 mM HEPES, 40 mM KCl, 1 mM EDTA, 0.2 mM DTT, 0.1 mg/ml BSA, 0.1% Tween-20, 20% glycerol; pH not stated; 1 h at 37 C; 1 nM probe; native 4-20% PAGE. As to conditions: protein: recombinant; label: 5'-Cy5.5; unstructured (predicted).
In series [3] the target is DNMT3a (in DNMT3a/DNMT3l complex);DNMT3l (human;human, UniProt Q9Y6K1;Q9UJW3 1-912;1-386, |). Nature of the series: EMSA; 0.2 uM protein; 20 mM HEPES, 40 mM KCl, 1 mM EDTA, 0.2 mM DTT, 0.1 mg/ml BSA, 0.1% Tween-20, 20% glycerol; pH not stated; 1 h at 37 C; 1 nM probe; native 4-20% PAGE.
Sequence of DNMT3a (in DNMT3a/DNMT3l complex);DNMT3l (Q9Y6K1 whole entry, chain 1 of 2): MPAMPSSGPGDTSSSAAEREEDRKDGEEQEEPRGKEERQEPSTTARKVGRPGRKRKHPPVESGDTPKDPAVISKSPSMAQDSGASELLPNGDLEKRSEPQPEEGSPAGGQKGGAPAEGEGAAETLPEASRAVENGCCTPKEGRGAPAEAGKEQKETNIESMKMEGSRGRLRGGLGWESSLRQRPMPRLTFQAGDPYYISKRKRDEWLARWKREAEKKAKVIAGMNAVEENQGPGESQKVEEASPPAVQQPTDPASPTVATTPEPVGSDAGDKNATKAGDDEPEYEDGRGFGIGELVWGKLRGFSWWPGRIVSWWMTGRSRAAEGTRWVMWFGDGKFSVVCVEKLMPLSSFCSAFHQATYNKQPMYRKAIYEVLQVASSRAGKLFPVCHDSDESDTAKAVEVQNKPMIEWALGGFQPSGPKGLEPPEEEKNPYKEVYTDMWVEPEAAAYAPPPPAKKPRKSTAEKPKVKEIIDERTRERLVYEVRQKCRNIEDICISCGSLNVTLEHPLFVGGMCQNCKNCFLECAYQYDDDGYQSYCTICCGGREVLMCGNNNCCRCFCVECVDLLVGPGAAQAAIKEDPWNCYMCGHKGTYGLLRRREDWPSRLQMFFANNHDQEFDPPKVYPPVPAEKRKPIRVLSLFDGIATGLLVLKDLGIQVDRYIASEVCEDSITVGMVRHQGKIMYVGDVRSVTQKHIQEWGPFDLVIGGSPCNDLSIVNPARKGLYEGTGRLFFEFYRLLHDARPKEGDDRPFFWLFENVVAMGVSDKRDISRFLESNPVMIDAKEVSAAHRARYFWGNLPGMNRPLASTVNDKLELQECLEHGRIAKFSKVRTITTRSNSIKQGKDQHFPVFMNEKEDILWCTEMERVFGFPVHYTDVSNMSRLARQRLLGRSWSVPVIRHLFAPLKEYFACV
Sequence of DNMT3a (in DNMT3a/DNMT3l complex);DNMT3l (Q9UJW3 whole entry, chain 2 of 2): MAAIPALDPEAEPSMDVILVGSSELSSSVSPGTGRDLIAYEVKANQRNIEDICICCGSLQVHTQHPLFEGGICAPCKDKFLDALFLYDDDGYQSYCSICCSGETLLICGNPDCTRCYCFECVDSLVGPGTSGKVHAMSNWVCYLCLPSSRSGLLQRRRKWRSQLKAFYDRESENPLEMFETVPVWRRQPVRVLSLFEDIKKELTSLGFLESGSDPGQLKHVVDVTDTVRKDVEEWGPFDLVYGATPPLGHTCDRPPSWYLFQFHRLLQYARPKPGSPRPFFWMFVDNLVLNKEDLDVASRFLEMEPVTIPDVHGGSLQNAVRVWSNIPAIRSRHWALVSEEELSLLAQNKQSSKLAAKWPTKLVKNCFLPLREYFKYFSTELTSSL
Series [4] has as its target T1, DNMT3a-CD. Nature of the series: EMSA; 0.2 uM protein; complete binding; 20 mM HEPES, 40 mM KCl, 1 mM EDTA, 0.2 mM DTT, 0.1 mg/ml BSA, 0.1% Tween-20, 20% glycerol; pH not stated; 1 h at 37 C; 1 nM probe; native 4-20% PAGE. The settings on record: protein: recombinant; label: 5'-Cy5.5; predicted stem-loop.
The target in series [5] is T1, DNMT3a-CD. Nature of the series: EMSA; DNMT3a-CD 0.002-0.2 uM; value only in figure, text: low nanomolar, same as dsDNA (P=0.49); 20 mM HEPES, 40 mM KCl, 1 mM EDTA, 0.2 mM DTT, 0.1 mg/ml BSA, 0.1% Tween-20, 20% glycerol; pH not stated; 1 h at 37 C; 1 nM probe; native 4-20% PAGE. The settings on record: protein: recombinant; label: 5'-Cy5.5; predicted stem-loop.
The target in series [6] is T1, DNMT3a-CD. The series is described as follows: competition EMSA; vs 1 nM Cy5.5-ecRNA-1; competitor 1-100 nM; 20 mM HEPES, 40 mM KCl, 1 mM EDTA, 0.2 mM DTT, 0.1 mg/ml BSA, 0.1% Tween-20, 20% glycerol; pH not stated; 1 h at 37 C; 1 nM probe; native 4-20% PAGE. The settings on record: protein: recombinant; chain copies: 2; blunt.

Drawing on article PMC4941050, “Extra-coding RNAs regulate neuronal DNA methylation dynamics”, this text covers binding result and IC50 for 5 molecules.

Bounds are passed on as bounds.

T1 sequence (O88508 608-908): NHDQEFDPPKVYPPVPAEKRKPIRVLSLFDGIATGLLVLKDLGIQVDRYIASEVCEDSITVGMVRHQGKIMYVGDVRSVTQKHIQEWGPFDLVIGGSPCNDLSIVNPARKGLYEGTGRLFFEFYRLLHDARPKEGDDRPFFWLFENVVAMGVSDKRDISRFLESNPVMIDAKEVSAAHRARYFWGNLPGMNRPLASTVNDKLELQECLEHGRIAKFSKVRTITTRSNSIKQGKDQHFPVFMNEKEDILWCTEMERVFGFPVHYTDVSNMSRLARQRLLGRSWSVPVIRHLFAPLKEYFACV

B1: mutant ecRNA-2 (ssRNA)
RNA: GAUGAUCCUGCCUUGAAGUGACGCU
Turning to B1, in the series with DNMT3a-CD [1], the binding result is reported as “binds”.

B2: mutant ecRNA-1 (ssRNA)
RNA: GUCGACACGCCCUCUGUUCCGUUAG
Take B2: the binding result in the series with DNMT3a-CD [2] is “binds”.

B3: ecRNA-2 (ssRNA)
RNA: GUCUGUGCACCGUGUGCAUAUACAG
Consider B3, for which the binding result (in series [3]; with DNMT3a-CD [4]) was “binds” throughout.

B4: ecRNA-1 (ssRNA)
RNA: GGGGACACGCCCUCUGUUCCCUUAU
Consider B4, for which the binding result (in series [3]; with DNMT3a-CD [5]) was “binds” throughout.

B5: ecDNA-1 unlabelled competitor (dsDNA)
DNA 1: GGGGACACGCCCTCTGTTCCCTTAT
DNA 2: ATAAGGGAACAGAGGGCGTGTCCCC
On to B5, for which the IC50 in the series with DNMT3a-CD [6] is > 20 fold excess over 1 nM ecRNA-1.
